Measured values from paper PMC10048814.
Numbering of substitutions follows the chain as printed. pKd: −log10 of the molar value.

Legend:
Assay in all cases: fluorescence polarization
Conditions in all cases: 50 mM HEPES-KOH pH 7.5, 10 mM potassium acetate, 2 mM beta-mercaptoethanol, 0.1 mg/mL BSA, 5 mM MgCl2, 2 nM DNA, temperature not stated
[1] = target: T1, DNA polymerase eta core, wild-type (Homo sapiens) (UniProt Q9Y253)
T1 sequence: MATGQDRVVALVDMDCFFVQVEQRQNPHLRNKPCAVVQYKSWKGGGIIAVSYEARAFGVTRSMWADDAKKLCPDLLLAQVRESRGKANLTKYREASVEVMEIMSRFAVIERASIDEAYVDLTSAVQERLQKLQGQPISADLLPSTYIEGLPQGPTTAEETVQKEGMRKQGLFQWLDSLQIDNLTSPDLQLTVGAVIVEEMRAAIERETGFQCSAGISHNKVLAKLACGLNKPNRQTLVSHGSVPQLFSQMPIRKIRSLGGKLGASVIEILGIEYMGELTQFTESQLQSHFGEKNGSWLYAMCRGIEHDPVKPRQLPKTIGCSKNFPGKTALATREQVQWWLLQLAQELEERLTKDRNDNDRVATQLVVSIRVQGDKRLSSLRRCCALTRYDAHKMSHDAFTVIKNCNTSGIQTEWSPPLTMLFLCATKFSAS

[2] = target: T2, pol eta core C34W C34W (Homo sapiens) (UniProt Q9Y253)
T2 sequence: T1 sequence with C34W

[3] = target: T3, pol eta core G209V G209V (Homo sapiens) (UniProt Q9Y253)
T3 sequence: T1 sequence with G209V

[4] = target: T4, pol eta core I147N I147N (Homo sapiens) (UniProt Q9Y253)
T4 sequence: T1 sequence with I147N

[5] = target: T5, pol eta core I272T I272T (Homo sapiens) (UniProt Q9Y253)
T5 sequence: T1 sequence with I272T

[6] = target: T6, pol eta core R167Q R167Q (Homo sapiens) (UniProt Q9Y253)
T6 sequence: T1 sequence with R167Q

[7] = target: T7, pol eta core R334G R334G (Homo sapiens) (UniProt Q9Y253)
T7 sequence: T1 sequence with R334G

[8] = target: T8, pol eta core S296F S296F (Homo sapiens) (UniProt Q9Y253)
T8 sequence: T1 sequence with S296F

[9] = target: T9, pol eta core T329I T329I (Homo sapiens) (UniProt Q9Y253)
T9 sequence: T1 sequence with T329I

[10] = cis-syn cyclobutane thymine dimer at T7-T8 of the 25-mer template

| Sequence | pKd [1, 10] | pKd [2, 10] | pKd [3, 10] | pKd [4, 10] | pKd [5, 10] | pKd [6, 10] | pKd [7, 10] | pKd [8, 10] | pKd [9, 10] | pKd [1] | pKd [2] | pKd [3] | pKd [4] | pKd [5] | pKd [6] | pKd [7] | pKd [8] | pKd [9] |
| --- | --- | --- | --- | --- | --- | --- | --- | --- | --- | --- | --- | --- | --- | --- | --- | --- | --- | --- |
| CACCATCCACTAC / ATGTAGTTGTAGTGGATGGTGGTAC [13-FAM-mer/25-CTD-mer] | 7.96 | 8.23 | 7.96 | 8.15 | 7.96 | 7.74 | 7.92 | 7.85 | 8.23 |  |  |  |  |  |  |  |  |  |
| CACCATCCACTAC / ATGTAGTTGTAGTGGATGGTGGTAC [13-FAM-mer/25-TT-mer] |  |  |  |  |  |  |  |  |  | 8.00 | 8.21 | 8.08 | 8.17 | 8.07 | 8.02 | 7.96 | 8.00 | 8.30 |
